Biological target: T1, GST-ZC3H7B(415-956) (UniProt Q9UGR2 415-956)
T1 sequence: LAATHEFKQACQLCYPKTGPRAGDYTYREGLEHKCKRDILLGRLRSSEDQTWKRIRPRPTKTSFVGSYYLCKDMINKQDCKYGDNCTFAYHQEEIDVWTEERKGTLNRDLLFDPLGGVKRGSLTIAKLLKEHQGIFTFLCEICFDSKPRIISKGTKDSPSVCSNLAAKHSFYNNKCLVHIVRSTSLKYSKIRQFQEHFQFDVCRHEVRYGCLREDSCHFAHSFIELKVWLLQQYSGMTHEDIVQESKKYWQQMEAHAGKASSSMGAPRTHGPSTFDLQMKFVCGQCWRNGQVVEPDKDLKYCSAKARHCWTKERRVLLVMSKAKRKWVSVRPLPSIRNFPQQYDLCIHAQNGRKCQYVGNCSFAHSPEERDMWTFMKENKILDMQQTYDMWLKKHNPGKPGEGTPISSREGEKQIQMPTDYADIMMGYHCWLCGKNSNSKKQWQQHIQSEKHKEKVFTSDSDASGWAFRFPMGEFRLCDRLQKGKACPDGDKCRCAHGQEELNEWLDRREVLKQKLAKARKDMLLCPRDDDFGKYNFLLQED
Assay: filter binding; Filter binding: 50 mM Tris-HCl pH 8.0, 150 mM NaCl, 5% glycerol, 20 C; EMSA: 20 mM HEPES-KOH pH 7.4, 100 mM NaCl, 1 mM MgCl2, 0.1% Tween20, 40 mM EDTA, 10% glycerol, 70 C; competition: 25 mM Tris-HCl pH 7.5, 150 mM KCl, 3 mM MgCl2, 0.01% NP-40, 1 mg/ml BSA, 1 mM DTT, 5% glycerol, RT
Conditions: protein: recombinant; tags: N-terminal GST (pGEX-4T-1, TEV site); label: 5' 32P

AUAGUGUAGU (ssRNA) [ZC3H7B motif RNA (AUAG)]
binding result: binds

From publication PMC11612968, “Endo-bind-n-seq: identifying RNA motifs of RNA binding proteins isolated from endogenous sources”
